# Molecular target: T1, PTK7 (on intact CCRF-CEM cells) (human (CCRF-CEM, T cell acute lymphoblastic leukemia)) (UniProt Q13308)
# T1 sequence: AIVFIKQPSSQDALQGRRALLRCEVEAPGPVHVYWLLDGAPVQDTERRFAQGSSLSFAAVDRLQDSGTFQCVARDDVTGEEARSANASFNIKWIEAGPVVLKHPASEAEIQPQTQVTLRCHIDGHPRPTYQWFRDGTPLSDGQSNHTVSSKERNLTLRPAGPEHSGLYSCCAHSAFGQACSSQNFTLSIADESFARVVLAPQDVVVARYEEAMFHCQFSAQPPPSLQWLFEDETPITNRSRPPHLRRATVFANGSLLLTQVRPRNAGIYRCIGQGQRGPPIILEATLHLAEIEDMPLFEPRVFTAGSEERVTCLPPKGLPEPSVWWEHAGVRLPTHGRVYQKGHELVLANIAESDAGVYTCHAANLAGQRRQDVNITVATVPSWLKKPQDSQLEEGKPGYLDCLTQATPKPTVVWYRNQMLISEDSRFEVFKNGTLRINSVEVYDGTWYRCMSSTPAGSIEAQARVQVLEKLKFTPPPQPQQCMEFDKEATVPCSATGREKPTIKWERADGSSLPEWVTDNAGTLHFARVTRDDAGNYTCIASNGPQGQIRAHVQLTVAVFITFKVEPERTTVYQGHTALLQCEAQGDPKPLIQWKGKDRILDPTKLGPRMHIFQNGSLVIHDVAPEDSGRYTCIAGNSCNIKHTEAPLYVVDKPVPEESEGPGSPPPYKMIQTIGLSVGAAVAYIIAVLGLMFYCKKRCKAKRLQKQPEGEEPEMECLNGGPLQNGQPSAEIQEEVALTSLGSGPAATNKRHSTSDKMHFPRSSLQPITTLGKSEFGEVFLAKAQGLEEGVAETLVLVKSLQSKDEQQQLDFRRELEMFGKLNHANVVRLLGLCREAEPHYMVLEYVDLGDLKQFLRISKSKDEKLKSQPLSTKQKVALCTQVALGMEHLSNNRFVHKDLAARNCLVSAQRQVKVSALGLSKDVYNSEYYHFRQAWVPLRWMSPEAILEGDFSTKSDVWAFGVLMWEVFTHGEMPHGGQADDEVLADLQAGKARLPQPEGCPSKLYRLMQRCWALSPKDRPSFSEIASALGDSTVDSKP
# Experiment: flow cytometry, CCRF-CEM cells
# Settings: apparent Kd on cells, 1x PBS, 0.55 mM MgCl2, pH 7.4, 200 uL, 1e5 cells, 30 min in the dark at room temperature (Methods; Results say on ice)
Sequence,Kd [nM],Kd (multivalent) [nM]
ATCTAACTGCTGCGCCGCCGGGAAAATACTGTACGGTTAGA [free sgc8],2.95,
TATGTCTCGAGTATTTTTATCTAACTGCTGCGCCGCCGGGAAAATACTGTACGGTTAGA / GACCGATGGATGACCTGTCTGCCTAATGTGCGTCGTAAG / GACCGATGGATGACTTACGACGCACAAGGAGATCATGAG / GACCGATGGATGACTCATGATCTCCTTTAGGCAGACAGG / GAAGCCACTCTGACCTGTCTGCCTAATGTGCGTCGTAAG / GAAGCCACTCTGACTTACGACGCACAAGGAGATCATGAG / TCATCCATCGGTCCTCATGATCTCCTTTAGGCAGACAGG / GACACACTGAGGTCCTGTCTGCCTAATGTGCGTCGTAAG / GACACACTGAGGTCTTACGACGCACAAGGAGATCATGAG / TCAGAGTGGCTTCCTCATGATCTCCTTTAGGCAGACAGG / TACTCGAGACATACCTGTCTGCCTAATGTGCGTCGTAAG / TACTCGAGACATACTTACGACGCACAAGGAGATCATGAG / ACCTCAGTGTGTCCTCATGATCTCCTTTAGGCAGACAGG [G3-sgc8 DNA dendrimer],,0.07

# Reference: paper PMC4431499
